Results on 1 molecule are retold here after patent US20180170997A1 (NATIONAL CANCER CENTER, published 2018).

In experiment [1] the target is T1, AITR on AITR-overexpressed Jurkat cells (CD5L-AITR-TM-ECD) (human, UniProt Q9Y5U5 26-183, limits assumed).
T1 construct: domain: transmembrane domain (TM)-ECD; also called pcDNA3.1(+)/CD5L-AITR-TM-ECD
T1 sequence (looked up): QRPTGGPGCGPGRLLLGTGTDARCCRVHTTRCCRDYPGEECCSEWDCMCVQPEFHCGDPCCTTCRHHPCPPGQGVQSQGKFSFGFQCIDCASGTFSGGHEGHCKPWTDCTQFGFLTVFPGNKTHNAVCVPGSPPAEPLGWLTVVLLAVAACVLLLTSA
The experiment can be described thus: flow cytometry on AITR-overexpressed Jurkat cells.
Experimental: In the flow cytometry experiment, the present inventors used fluorochrome-conjugated antibodies against CD4, CDS, CD11c, IFN-γ, Foxp3, CTLA-4, CD62L, CD45RO, CD45RA (BD Bioscience), CD19, CD56, CD14, CD127, IL-4, IL-17A, GATA-3, T-bet, RORγt (ebioscience, San Diego, Calif.), and BDCA-2 (Miltenyi Biotec). […] Intracellular level of cytokines was measured after 5 hour-long pre-incubation with 50 ng/ml phorbol 12-myristate 13-acetate (PMA), 10 μg/ml ionomycin, and 10 μg/ml Brefeldin A (Sigma-Aldrich, St Louis. Mo.). FACSCalibur flow cytometer (BD Bioscience) was used for all of the flow cytometry analysis and WinMDI software (Ver. 2.9, Scripps. Institute) was used for data analysis.
For generating AITR-overexpressing cells, the gene fragment encoding AITR-transmembrane domain (TM)-ECD was inserted in-frame with CD5L sequence in a mammalian vector pcDNA3.1(⁺), i.e. pcDNA3.1(⁺)/CD5L-AITR-TM-ECD. Then pcDNA3.1(⁺)/Empty vector or pcDNA3.1(⁺)/CD5L-AITR-TM-ECD vector was transient transfected into Jurkat cells by electroporation. AITR expression on cell surface was detected by staining with biotin-conjugated anti-AITR mAb.

Experiment [2] concerns the target T2, activation-inducible tumor necrosis factor receptor (AITR) on human T cells (human, UniProt Q9Y5U5 26-241).
T2 construct: whole, on cells; also called GITR; TNFRSF18
T2 sequence (looked up): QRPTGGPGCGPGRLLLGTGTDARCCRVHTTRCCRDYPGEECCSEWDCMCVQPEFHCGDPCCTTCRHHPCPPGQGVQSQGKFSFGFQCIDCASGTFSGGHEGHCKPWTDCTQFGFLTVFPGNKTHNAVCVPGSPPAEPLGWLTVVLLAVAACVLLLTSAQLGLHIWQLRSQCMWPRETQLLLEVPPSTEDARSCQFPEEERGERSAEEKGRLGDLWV
Put plainly: flow cytometry on stimulated PBMC subsets. (In general: Flow cytometry measures light scatter and fluorescence of single cells or particles in a stream.)

B1: anti-AITR mAb B32 (antibody, V domains shown)
VH: EVQLLESGGGLIQPGGSLRLSCAASGFTFSTYGMSWVRQAPGKGLEWVSGITGSAGGGSTNYADSVKGRFTISRDNSKNTLYLQMNSLRAEDTAVYYCAKGYSSNWRSAFDIWGQGTMVTVSS
VL: SYELMQPPSVSVSPGQTAGITCSGDALPKQYAYWYQQRPGQAPVLLIYKDTERPSGIPERFSGSSSGTTVTLTISGVQAEDEADYYCQSADSSGTYPVFGGGTKLTVL
notes: also called clone B32
As to B1, the binding result in experiment [1] and in experiment [2] was “binds” in each case.
